Test [1] deals with T1, CDTb D4 fragment, CDTb residues 753 to 876 (Clostridioides difficile, UniProt O32739).
T1 construct: pET22b construct; source: E. coli BL21(DE3), purified (Ni-NTA, SEC); not shown: His6, C-terminal, kept
Description: BLI. The note with it: both partners purified.

Test [2] has as its target T2, cleaved, mature CDTb (from limited trypsinization of proCDTb) (Clostridioides difficile).
T2 chain: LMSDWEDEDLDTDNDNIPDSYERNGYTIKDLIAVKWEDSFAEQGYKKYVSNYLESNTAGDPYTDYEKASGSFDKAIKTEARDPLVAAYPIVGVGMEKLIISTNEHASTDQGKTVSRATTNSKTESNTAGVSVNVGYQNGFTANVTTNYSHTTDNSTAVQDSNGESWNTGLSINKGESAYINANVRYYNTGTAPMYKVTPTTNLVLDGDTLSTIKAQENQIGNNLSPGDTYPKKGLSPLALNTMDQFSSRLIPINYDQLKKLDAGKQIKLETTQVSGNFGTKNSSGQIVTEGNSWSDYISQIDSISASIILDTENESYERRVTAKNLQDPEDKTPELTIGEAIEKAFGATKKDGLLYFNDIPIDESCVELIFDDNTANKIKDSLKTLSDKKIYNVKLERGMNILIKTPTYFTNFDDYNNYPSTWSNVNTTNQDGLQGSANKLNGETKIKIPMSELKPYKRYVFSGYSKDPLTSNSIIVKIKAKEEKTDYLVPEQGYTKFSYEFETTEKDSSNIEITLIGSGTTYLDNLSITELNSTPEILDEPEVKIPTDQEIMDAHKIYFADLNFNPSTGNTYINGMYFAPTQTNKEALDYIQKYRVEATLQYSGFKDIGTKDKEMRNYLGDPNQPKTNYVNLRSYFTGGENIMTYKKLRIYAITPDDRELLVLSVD
Description: cell-based or functional assay.

The target in test [3] is T3, CDTb protoxin (proCDTb), CDTb residues 43 to 876 (Clostridioides difficile, UniProt O32739).
T3 construct: pET24b construct for biophysical and structural studies; A different construct (pGEX-6p1, GST cleaved, C-terminal 6xHis) was used for immunisation and the neutralisation assay; also called proCTDb; source: E. coli BL21(DE3), purified (Ni-NTA, anion exchange, SEC); not shown: His6, C-terminal, kept
Description: SPR; proCDTb with C-terminal 6xHis immobilised (~200 RU) on NTA chip, Biacore X100; Fab flowed at 0.1-25 nM; 10 mM HEPES pH 8.0, 150 mM NaCl, 6 mM CaCl2, 0.05% Tween 20; association 180 s, dissociation 600 s; 1:1 binding model. The note with it: both partners purified. (In general: SPR reads the build-up and loss of mass on a sensor chip optically.)

Test [4] concerns the target T1, CDTb D4 fragment, CDTb residues 753 to …. Description: crystal structure. Conditions: both partners purified.

B1: BINTOXB/22 Fab (Fab, V domains shown)
VH: QIQLVQSGPELKKPGETVKISCKASGYTFTNYGMNWVKQAPGKDLKWMGWMSTYTGEPTYADDFKGRFAFSLETSASTAYLQINNLKNEDMATYFCARRGNYLSFDYWGQGTTLTVSS
VL: DIVMTQSHKFMSTSVGDRVSITCKASQDVSTAVGWYQQKPGQSPKLLIYSASYRYTGVPDRFTGSGSGTDFTFTISSVQAEDLAVYYCQQHYSPPFTFGSGTELEIK
A word on the Kd: it is the free concentration of one partner at which half of the binding sites on the other are occupied at equilibrium, for simple one-to-one binding. Lower therefore signals higher affinity. As to B1, in test [1], the binding result is given as “no binding (tested: 200 nM)”. For the same molecule, the “EC50 of protection of HT29 cells from CDT (CDTa 25 ng/mL + cleaved, monomeric CDTb 75 ng/mL) cytotoxicity, Hoechst-stained surface, BINTOXB/22 IgG; blocks CDTb oligomerization (m7 with m7)” value in test [2] came out at 21 µg/mL. In test [3], this molecule displayed a Kd of 16.3 nM.

B2: BINTOXB/9 Fab (Fab, V domains shown)
VH: QVQLQQSGAELARPGASVKMSCKASGYTFTSYTMHWVKQRPGQGLEWIGYINPSNDYTSYNQKFKDKATLTADKSSSTAYMQLSSLTSEDSAVYYCARCWGYDPYYFDYWGQGTTLTVSS
VL: DIVMSQSPSLLAVSAGEKVTMSCKSSQSLLNSRTRKNYLAWYQQKPGQSPKVLIYWASTRESGVPDRFTGSGSGTDFTLTISSVQAEDLAVYYCKQSYNLLTFGAGTKLELK
Turning to B2, the binding result in test [4] is reported as “binds”. For the same molecule, the “EC50 of protection of HT29 cells from CDT (CDTa 25 ng/mL + cleaved, monomeric CDTb 75 ng/mL) cytotoxicity, Hoechst-stained surface, BINTOXB/9 IgG; blocks CDTb oligomerization (m7 with m7)” value in test [2] stood at 13 µg/mL. Moreover, the Kd in test [3] is 0.73 nM.

Values taken from PMC10127577 (Journal of Bacteriology, 2023).
